This is an account of results in patent US20200283508A1 (TEXAS A AND M UNIVERSITY SYSTEM, published 2020).

As a reminder, the EC50 (read off the curve) is the midpoint of the concentration-response curve.

Changes are numbered by the printed parent chain. Where two headings read alike, the source gives them in different places.

The target in assay [1] is T1, Coa-R (Coa 506-636) (Staphylococcus aureus strain Newman).
Assay [2] has as its target T2, Coa-C (Coa 311-636) (Staphylococcus aureus strain Newman, UniProt P08515 1-218 = GST).
Assay [3] concerns the target T2, Coa-C (Coa 311-636). Nature of the assay: apparent Kd from half-maximal binding in ELISA (GraphPad Prism). Background: In an ELISA, binding on a coated surface is turned into a signal by an enzyme label.
Experimental: (§1) As well, binding was tested against Coa fragments, namely Coa-C₃₁₁₋₆₃₆, Coa-F₃₁₁₋₅₀₅, Coa-R0₄₇₄₋₅₀₅ and Coa-R₅₀₆₋₆₃₆. Recombinant proteins Efb-N₃₀₋₁₀₅, Efb-A₃₀₋₆₇, Efb-O₆₈₋₉₈, Coa-C₃₁₁₋₆₃₆, Coa-F₃₁₁₋₅₀₅, Coa-R0₄₇₄₋₅₀₅ and Coa-R₅₀₆₋₆₃₆ were diluted in 50 mM sodium carbonate pH 9.6 and immobilized at the concentration of 200 ng/well for 1 hour at room temperature. Immobilized proteins were probed for recognition in a solid-phase binding assay with different quantities of LIG40 antibodies after blocking and washing. After washing, varying concentrations of LIG40 scFv-Fc antibodies were diluted in 2% BSA+1×PBS+0.05% Tween-20 and incubated with the immobilized proteins for 1 hour at room temperature with shaking at 250 rpm. Bound scFv-Fcs were detected using polyclonal α-human IgG HRP-conjugated Ab diluted to 1:10000 in 2% BSA+1×PBS+0.05% Tween-20. HRP-conjugated Ab was incubated for 1 hour at room temperature with shaking at 250 rpm. HRP signal was developed with Sigma FAST-OPD using manufacturers guidelines.
The target of assay [4] is T3, synthetic peptide Coa-RI (Coa 506-532) (Staphylococcus aureus strain Newman).
T3 construct: also called sCoa-RI
Nature of the assay: peptide inhibition ELISA; appreciable inhibition only above 100 µM peptide.

Assay [5] addresses T1, Coa-R (Coa 506-636). Nature of the assay: blocking ELISA: scFv-Fc pre-incubated with 10 nM CoaR, residual binding to coated Fg (blocked ligand: Fg).
For assay [6], the target named is T4, Coa-R0474-505 (recombinant protein) (Staphylococcus aureus strain Newman).
T4 chain: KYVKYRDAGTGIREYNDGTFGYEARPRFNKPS
In words: solid-phase binding assay, titration (FIG. 24); ND in FIG. 27.

The target in assay [7] is T5, Efb-N30-105 (Staphylococcus aureus strain Newman, UniProt A6QG59 30-105).
T5 sequence: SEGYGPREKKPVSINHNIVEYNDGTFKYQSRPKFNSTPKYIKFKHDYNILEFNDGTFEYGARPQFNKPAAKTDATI
In words: solid-phase binding assay, titration (FIG. 24).

The target in assay [8] is T6, recombinant Efb-O (Efb 68-98) (Staphylococcus aureus strain Newman, UniProt P08515 1-218 = GST). In words: solid-phase binding assay, titration (FIG. 24).
In assay [9] the target is T7, Efb-A30-67 (Staphylococcus aureus strain Newman, UniProt P08515 1-218 = GST; A6QG59 30-67). Nature of the assay: solid-phase binding assay, titration (FIG. 24).
In a further assay the target is T8, BSA (bovine, UniProt P02769 25-607).
T8 construct: also called bovine serum albumin
Nature of the assay: solid-phase binding assay (FIG. 24).

The target in assay [10] is T3, synthetic peptide Coa-RI (Coa 506-532). Nature of the assay: isothermal titration calorimetry, peptide into 10 µM Fg-D, one-site model. Background: ITC needs no label: the signal is the heat of the interaction.
Assay [11] addresses T5, Efb-N30-105. Nature of the assay: ELISA, apparent Kd from half maximum binding.
Assay [12] has as its target T6, recombinant Efb-O (Efb 68-98). In words: ELISA, apparent Kd from half maximum binding.
Assay [13] addresses T7, Efb-A30-67. In words: ELISA, apparent Kd from half maximum binding.
Assay [14] deals with T1, Coa-R (Coa 506-636). Nature of the assay: ELISA, antigen coated 200 ng/well, scFv-Fc at 0.5 µg/ml.
Assay [15] addresses T2, Coa-C (Coa 311-636). The source holds these as a separate data set.
The target of assay [16] is T6, recombinant Efb-O (Efb 68-98).
The target of assay [17] is T7, Efb-A30-67.
In assay [18] the target is T9, Coa-F (Coa 311-505) (Staphylococcus aureus strain Newman, UniProt P08515 1-218 = GST). In words: apparent Kd from half-maximal binding in ELISA (GraphPad Prism).
In assay [19] the target is T4, Coa-R0474-505 (recombinant protein). Described as above.
Assay [20] addresses T2, Coa-C (Coa 311-636). The assay is described as above. The source holds these as a separate data set.
In assay [21] the target is T5, Efb-N30-105. The description is as above.
In assay [22] the target is T6, recombinant Efb-O (Efb 68-98). The description is as above.
For assay [23], the target named is T7, Efb-A30-67. The assay is described as above.
The target in assay [24] is T5, Efb-N30-105. In words: ELISA, antigen coated 200 ng/well, scFv-Fc at 0.5 µg/ml.
In assay [25] the target is T9, Coa-F (Coa 311-505).
Assay [26] concerns the target T9, Coa-F (Coa 311-505). In words: apparent Kd from half-maximal binding in ELISA (GraphPad Prism). The source holds these as a separate data set.
Experimental: as §1
In assay [27] the target is T4, Coa-R0474-505 (recombinant protein). Described as above.
Experimental: as §1
In assay [28] the target is T1, Coa-R (Coa 506-636). The assay is described as above.
Experimental: as §1
The target of assay [29] is T2, Coa-C (Coa 311-636). In words: apparent Kd from half-maximal binding in ELISA (GraphPad Prism); column head prints M, the text prints µM.

T8 sequence (P02769 25-607 limits assumed): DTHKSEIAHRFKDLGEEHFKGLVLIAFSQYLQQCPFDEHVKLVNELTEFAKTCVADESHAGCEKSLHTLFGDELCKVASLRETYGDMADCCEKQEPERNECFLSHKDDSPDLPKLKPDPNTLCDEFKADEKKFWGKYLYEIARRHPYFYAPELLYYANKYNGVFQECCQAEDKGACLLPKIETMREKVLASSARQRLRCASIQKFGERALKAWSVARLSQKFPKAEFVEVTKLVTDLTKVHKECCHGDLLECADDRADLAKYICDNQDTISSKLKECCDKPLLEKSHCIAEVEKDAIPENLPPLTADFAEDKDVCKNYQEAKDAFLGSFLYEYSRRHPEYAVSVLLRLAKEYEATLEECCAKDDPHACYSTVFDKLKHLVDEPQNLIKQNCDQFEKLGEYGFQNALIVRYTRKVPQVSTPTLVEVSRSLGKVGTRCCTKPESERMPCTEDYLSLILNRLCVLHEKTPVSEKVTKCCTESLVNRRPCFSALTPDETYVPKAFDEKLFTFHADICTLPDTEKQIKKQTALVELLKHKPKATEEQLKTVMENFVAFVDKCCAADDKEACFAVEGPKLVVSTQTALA

B1: LIG40-A11 (scFv, V domains shown)
VH: QVQLVESGGVVVQPGGSLRLSCAASGFTFDDYAMHWVRQAPGKGLEWVSLISWDGGSTYYADSVKGRFTISRDNSKNSLYLQMNSLRAEDTALYYCVAARRGMDVWGQGTTVTVSS
VL: KIVLTQSPLSLPVTPGEPASISCRSSQSLLYSNGNNYLDWYLQKPGQSPQLLIYLGSNRAPGVPDRFSGSGSGTDFTLRISRVEAEDVGVYYCMQGRQPPFTFGPGTKVDIK
notes: also called anti-CoaR scFv-Fc antibody
Turning to B1, the “EC50 (read off the curve)” value with Coa-R (Coa 506-636) [1] is around 0.008 µg/mL; with Coa-C (Coa 311-636) [2] it was around 0.02 µg/mL. Besides, the Kd with Coa-C (Coa 311-636) [3] stood at 0.133 nM. The binding result in [4] is “binds”; in assay [6], “no binding”; with Efb-N30-105 [7], “no binding”; in assay [8], “no binding”; with Efb-A30-67 [9] it was “no binding”; with BSA, “no binding”. In addition, the “IC50 (read off the curve)” value with Coa-R (Coa 506-636) [5] is around 3 µg/mL.

B2: Fibrinogen-D fragment (other)
chain 1: VSEDLRSRIEVLKRKVIEKVQHIQLLQKNVRAQLVDMKRLEVDIDIKIRSCRGSCSRALAREVDLKDYEDQQKQLEQVIAKDLLPSR
chain 2: DNENVVNEYSSELEKHQLYIDETVNSNIPTNLRVLRSILENLRSKIQKLESDVSAQMEYCRTPCTVSCNIPVVSGKECEEIIRKGGETSEMYLIQPDSSVKPYRVYCDMNTENGGWTVIQNRQDGSVDFGRKWDPYKQGFGNVATNTDGKNYCGLPGEYWLGNDKISQLTRMGPTELLIEMEDWKGDKVKAHYGGFTVQNEANKYQISVNKYRGTAGNALMDGASQLMGENRTMTIHNGMFFSTYDRDNDGWLTSDPRKQCSKEDGGGWWYNRCHAANPNGRYYWGGQYTWDMAKHGTDDGVVWMNWKGSWYSMRKMSMKIRPFFPQQ
chain 3: KMLEEIMKYEASILTHDSSIRYLQEIYNSNNQKIVNLKEKVAQLEAQCQEPCKDTVQIHDITGKDCQDIANKGAKQSGLYFIKPLKANQQFLVYCEIDGSGNGWTVFQKRLDGSVDFKKNWIQYKEGFGHLSPTGTTEFWLGNEKIHLISTQSAIPYALRVELEDWNGRTSTADYAMFKVGPEADKYRLTYAYFAGGDAGDAFDGFDFGDDPSDKFFTSHNGMQFSTWDNDNDKFEGNCAEQDGSGWWMNKCHAGHLNGVYYQGGTYSKASTPNGYDNGIIWATWKTRWYSMKKTTMKIIPFNRLTIGEGQQHHLGGAK
notes: domain: D fragment; also called Fg-D; D fragment of human Fg
In turn, B2 came in with a Kd in assay [10] of 88 nM.

B3: FBE5-F11 (scFv, V domains shown)
VH: QVQLQESGGGVVQPGRSLRLSCAASGFTFSSYGMHWVRQAPGKGLEWVAVISYDGSNKYYADSVKGRFTISRDNSKNTLYLQMNSLRAEDTAVYYCAKDLASSGFDYWGQGTLVTVSS
VL: QSVLTQPPSVSAAPGQKVTISCSGSSSNIGNNYVSWYQQLPGTAPKLLIYDNNKRPSGIPDRFSGSKSGTSATLGITGLQTGDEADYYCGTWDSSLSAEVFGGGTKLTVL
For B3, the Kd in the assay with Efb-N30-105 [11] is around 0.1 nM; in [12], around 0.1 nM; with Efb-A30-67 [13], around 0.1 nM; with Coa-F (Coa 311-505) [18], 0.244 nM; in assay [19] it was 0.213 nM; in the assay with Coa-C (Coa 311-636) [20] it was 0.513 nM. In addition, the values for the Kd (in the assay with Efb-N30-105 [21]; in assay [22]; with Efb-A30-67 [23]) were 0.219 nM, 0.396 nM and 0.483 nM, respectively. In the assay with Coa-R (Coa 506-636) [14], the binding result was “no binding (tested: 0.5 µg/ml)”. The figures for the “EC50 (read off the curve)” value (in the assay with Coa-C (Coa 311-636) [15]; in [16]; in the assay with Efb-A30-67 [17]) were around 0.06 µg/mL, around 0.05 µg/mL and around 0.06 µg/mL, respectively.

B4: FBE5-E5 (scFv, V domains shown)
VH: QMQLVQSGGGVVQPGRSLRLSCAASGFTFSSYGMHWVRQAPGKGLEWVAVISYDGSNKYYADSVKGRFTISRDNSKNTLYLQMNSLRGEDTAVYYCAREGGWEPNGLDYWGQGTLVTVSS
VL: B3 VL
On to B4, for which the binding result is on record as “binds” with Efb-N30-105 [24] and “no binding (tested: 0.5 µg/ml)” with Coa-R (Coa 506-636) [14]. The Kd worked out at 9.5 nM with Coa-F (Coa 311-505) [18], 864 nM in [19], 6.27 nM with Coa-C (Coa 311-636) [20] and 434 nM in assay [22].

B5: LIG40-D8 (scFv, V domains shown)
VH: B3 VH with Q1E, Q5V, S52W, K98R, L100Y, A101H, S102G, S103D
VL: DIQMTQSPSSLSASVGDTVTITCRASQDINNYLAWFQQKPGKAPKSLISAASSLQNGVPLRFSGSASGADFTLTISGLQPEDSGTYYCQQYDVFPITFGPGTKVDIK
On to B5, for which the “EC50 (read off the curve)” value with Coa-F (Coa 311-505) [25], with Coa-R (Coa 506-636) [1] and in the assay with Coa-C (Coa 311-636) [2] was around 0.01 µg/mL throughout. For the same molecule, the Kd came out at 0.112 nM with Coa-F (Coa 311-505) [26], 2.52 nM in assay [27], 0.0862 nM with Coa-R (Coa 506-636) [28] and 0.0939 nM with Coa-C (Coa 311-636) [29]. In addition, the binding result (with Efb-N30-105 [7]; in assay [8]; with Efb-A30-67 [9]; in the assay with BSA) was “no binding” in each case.
